Non-standard residues stand in square brackets, D forms with d. Groups on a side chain read outwards from the residue. Primed or numbered codes have the meaning given here. No end group written: not given here. *: point of attachment. C20 diacid = O=C(O)CCCCCCCCCCCCCCCCCCC(=O)*; NMeY = CN[C@@H](Cc1ccc(O)cc1)C(=O)O; Stearoyl = CCCCCCCCCCCCCCCCCC(=O)*; αMeF = C[C@](N)(Cc1ccccc1)C(=O)O; dIva = CC[C@@](C)(N)C(=O)O; Iva = CC[C@](C)(N)C(=O)O; PEG2′ = not defined here; Aib = CC(C)(N)C(=O)O
Assays:
[1] = biological target: T1, human GIPR (human), P48546
T1 chain: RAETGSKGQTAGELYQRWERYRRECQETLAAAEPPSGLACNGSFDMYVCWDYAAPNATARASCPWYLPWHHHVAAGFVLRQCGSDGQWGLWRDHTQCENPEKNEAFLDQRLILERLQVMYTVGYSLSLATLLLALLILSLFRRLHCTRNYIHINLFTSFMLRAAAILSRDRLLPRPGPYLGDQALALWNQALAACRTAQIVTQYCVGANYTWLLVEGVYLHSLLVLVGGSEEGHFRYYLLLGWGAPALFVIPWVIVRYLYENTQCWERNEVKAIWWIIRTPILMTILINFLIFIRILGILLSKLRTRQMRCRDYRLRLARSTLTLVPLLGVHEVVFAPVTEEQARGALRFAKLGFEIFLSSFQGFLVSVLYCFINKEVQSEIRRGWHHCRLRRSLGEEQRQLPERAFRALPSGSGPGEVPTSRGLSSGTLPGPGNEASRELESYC

[2] = biological target: T2, human GLP-1R (human), P43220
T2 chain: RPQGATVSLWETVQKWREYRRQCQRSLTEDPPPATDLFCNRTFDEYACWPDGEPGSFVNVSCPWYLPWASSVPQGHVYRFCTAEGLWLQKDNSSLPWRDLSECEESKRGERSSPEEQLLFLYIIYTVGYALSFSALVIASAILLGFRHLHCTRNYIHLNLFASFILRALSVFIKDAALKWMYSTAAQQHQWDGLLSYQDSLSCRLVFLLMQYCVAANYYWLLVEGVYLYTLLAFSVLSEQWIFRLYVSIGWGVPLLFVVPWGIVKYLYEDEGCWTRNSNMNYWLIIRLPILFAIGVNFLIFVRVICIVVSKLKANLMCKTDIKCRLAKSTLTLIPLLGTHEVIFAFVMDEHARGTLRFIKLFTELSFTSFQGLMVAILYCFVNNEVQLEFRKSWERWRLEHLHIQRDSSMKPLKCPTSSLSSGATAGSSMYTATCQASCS

Binder | Agonist activity (EC50, M) [1] | Agonist activity (EC50, M) [2]
[NMeY][Aib]EGTFISDYSI[dIva]LDRIAQ[Aib]NFVNWLLAQRPSSGAPPPSR (ends and bridges not checked) [Compound 83] | 1.7e-12 M | 1.7e-07 M
Me-Y[Aib]EGTFISDYSIALDRIAQQSFVNWLLAQRPSSGAPPPS (not fully specified (residue 1, C-terminus); ends and bridges not checked) [Compound 129] | 1.7e-12 M | > 1e-06 M
[NMeY][Aib]EGTFISDYSIALDRIAQ[Aib]N[αMeF]VNW[Iva]LAQRPSSGAPPPSR (not fully specified (C-terminus); ends and bridges not checked) [Compound 76] | 1.5e-12 M | > 1e-06 M
[NMeY][Aib]EGTFISDYSI[dIva]LDRIAQQDFVNWLLAQRPSSGAPPPS (ends and bridges not checked) [Compound 63] | 1.2e-12 M | > 1e-06 M
[NMeY][Aib]EGTFISDYSI[dIva]LDR[dIva]AQ[dIva]NFVNWLLAQRPSSGAPPPSR (not fully specified (N-terminus, C-terminus); ends and bridges not checked) [Compound 103] | 1.3e-12 M | > 1e-06 M
Me-Y[Aib]EGTFISDYSI[dIva]LDRIAQQDFVNWLLAQRPSSGAPPPSR (not fully specified (residue 1, C-terminus); ends and bridges not checked) [Compound 131] | 1.9e-12 M | > 1e-06 M
Me-Y[Aib]EGTFISDYSIALDRIAQ[Aib]S[αMeF]VNW[Iva]LAQRPSSGAPPPSR (not fully specified (residue 1, C-terminus); ends and bridges not checked) [Compound 125] | 1.8e-12 M | > 1e-06 M
[NMeY][Aib]EGTFISDYSIALDR[Aib]AQ[Aib]N[αMeF]VNW[Iva]LAQRPSSGAPPPSR (ends and bridges not checked) [Compound 114] | 1e-12 M | –
[NMeY][Aib]EGTFISDYSI[Iva]LDRIAQQD[αMeF]VNWLLAQRPSSGAPPPSR (not fully specified (C-terminus); ends and bridges not checked) [Compound 74] | 1.4e-12 M | > 1e-06 M
Y[Aib]EGTFISDYSK([PEG(2)-C20 diacid])ALDRIAQQNFVNW[Iva]LAQRPSSGAPPPS (not fully specified (C-terminus); ends and bridges not checked) [Compound 406] | 3.2e-10 M | > 1e-06 M
[NMeY][Aib]EGTFISDYSIALDR[Aib]AQ[Aib]NFVNWLLAQRPSSGAPPPSR (ends and bridges not checked) [Compound 82] | 1.4e-12 M | 1e-07 M
[NMeY][Aib]EGTFISDYSIALDRIAQ[Aib]DFVNW[Iva]LAQRPSSGAPPPSR (ends and bridges not checked) [Compound 123] | 1.3e-12 M | > 1e-06 M
[NMeY][Aib]EGTFISDYSIALDR[Aib]AQ[Aib]N[αMeF]VNWLLAQRPSSGAPPPSR (ends and bridges not checked) [Compound 98] | 1.4e-12 M | > 1e-06 M
Me-Y[Aib]EGTFISDYSIALDR[Aib]AQ[Aib]SFVNW[Iva]LAQRPSSGAPPPSR (not fully specified (residue 1, C-terminus); ends and bridges not checked) [Compound 126] | 2.1e-12 M | > 1e-06 M
[NMeY][Aib]EGTFISDYSIALDRIAQQSFVNW[Iva]LAQRPSSGAPPPSR (not fully specified (N-terminus, C-terminus); ends and bridges not checked) [Compound 67] | 1.4e-12 M | > 1e-06 M
[NMeY][Aib]EGTFISDYSI[dIva]LDR[Aib]AQQD[αMeF]VNWLLAQRPSSGAPPPSR (ends and bridges not checked) [Compound 81] | 1.5e-12 M | > 1e-06 M
Y[Aib]EGTVVSLYSK([Gly-Gly-Gly-Gly-C20 diacid])[Aib]LDRQAQ[Aib]EFVRWLLAQR (ends and bridges not checked) [Compound 256] | 3.1e-10 M | > 1e-06 M
Y[Aib]EGTVVSLYSK([Gly-Gly-Gly-Gly-C20 diacid])[Aib]LDRQAQ[Aib]EFVK(Ac)WLLAQR (ends and bridges not checked) [Compound 259] | 1.2e-10 M | > 1e-06 M
[NMeY][Aib]EGTFISDYSIALDRIAQQS[αMeF]VNW[Iva]LAQRPSSGAPPPSR (not fully specified (C-terminus); ends and bridges not checked) [Compound 75] | 1.4e-12 M | > 1e-06 M
[NMeY][Aib]EGTFISDYSI[dIva]LDR[Aib]AQ[Aib]NFVNW[Iva]LAQRPSSGAPPPSR (ends and bridges not checked) [Compound 85] | 1.1e-12 M | > 1e-06 M
[NMeY][Aib]EGTFISDYSIALDR[Aib]AQQD[αMeF]VNWLLAQRPSSGAPPPSR (not fully specified (C-terminus); ends and bridges not checked) [Compound 73] | 1.4e-12 M | > 1e-06 M
[NMeY][Aib]EGTFISDYSIALDRIAQQSFVNWLLAQRPSSGAPPPSR (ends and bridges not checked) [Compound 60] | 1.1e-12 M | > 1e-06 M
Y[Aib]EGTVVSLYSK([Gly-Gly-Gly-Gly-Stearoyl])[Aib]LDRQAQ[Aib]EFVK(Ac)WLLAQR (ends and bridges not checked) [Compound 261] | 5.5e-11 M | > 1e-06 M
Y[Aib]EGTFISDYSK([PEG(2)-C20 diacid])ALDRIAQQNFVNW[Iva]LAQRPSSGAPPPS (not fully specified (C-terminus); ends and bridges not checked) [Compound 402] | 7.8e-11 M | > 1e-06 M
Y[Aib]EGTVVSLYSK([Gly-Gly-Gly-Gly-Stearoyl])[Aib]LDRQAQ[Aib]EFVRWLLAQR (ends and bridges not checked) [Compound 257] | 9e-11 M | > 1e-06 M
Y[Aib]EGTFISDYSK([PEG2′-pentadecanoyl])ALDRIAQQDFVNWLLAQRPSSGAPPPSR (ends and bridges not checked) [Compound 187] | 1.2e-11 M | –
Y[Aib]EGTVVSLYSK([Gly-Gly-Gly-Gly-Stearoyl])[Aib]LDRQAQ[Aib]EFVRWLLAQR (ends and bridges not checked) [Compound 258] | 9.2e-11 M | > 1e-06 M
[NMeY][Aib]EGTFISDYSIALDRIAQQD[αMeF]VNWLLAQRPSSGAPPPS (ends and bridges not checked) [Compound 62] | 9.9e-13 M | > 1e-06 M
